For the data set, the target named is nucleolin (UniProt P19338). Nature of the data set: SPR. As to conditions: BIAcore 3000, nucleolin on CM5 chip, 10 mM HEPES, 150 mM NaCl, 3 mM EDTA, 0.005% surfactant P20, pH 7.4, 25 °C.

Among the data in publication PMC4872150 are Kd values, retold here.

UniProt P19338, sequence (P19338 whole entry): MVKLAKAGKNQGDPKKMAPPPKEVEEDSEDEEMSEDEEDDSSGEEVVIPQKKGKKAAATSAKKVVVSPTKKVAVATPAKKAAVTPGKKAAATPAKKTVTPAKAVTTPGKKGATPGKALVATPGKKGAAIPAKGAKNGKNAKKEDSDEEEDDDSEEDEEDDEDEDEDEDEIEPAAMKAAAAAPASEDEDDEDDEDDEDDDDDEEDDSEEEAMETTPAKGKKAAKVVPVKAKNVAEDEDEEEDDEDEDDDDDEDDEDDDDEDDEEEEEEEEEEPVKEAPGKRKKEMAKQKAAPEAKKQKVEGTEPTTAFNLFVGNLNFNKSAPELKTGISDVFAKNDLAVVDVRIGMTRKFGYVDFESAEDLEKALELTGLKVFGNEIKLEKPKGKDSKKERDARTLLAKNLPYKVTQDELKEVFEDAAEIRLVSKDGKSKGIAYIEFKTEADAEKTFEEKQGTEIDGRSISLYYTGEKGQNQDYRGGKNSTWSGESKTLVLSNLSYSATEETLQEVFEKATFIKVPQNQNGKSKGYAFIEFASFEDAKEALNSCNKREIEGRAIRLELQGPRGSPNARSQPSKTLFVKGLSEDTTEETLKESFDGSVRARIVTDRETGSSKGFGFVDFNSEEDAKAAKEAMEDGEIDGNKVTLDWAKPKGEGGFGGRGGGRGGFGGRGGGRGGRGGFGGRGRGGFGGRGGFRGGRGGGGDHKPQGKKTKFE

For orientation: Kd means the concentration at which binding is half-saturated. Read a high Kd as a looser complex. For GGTGGTGGTGGTNGTGGTGGTGGNGG [FAN-1324dI], the Kd (N = 2'-deoxyinosine at positions 13 and 24 (replacing T)) stood at 0.0309 µM.
With GGTGGTGGTGGTTGTGGTGGTGGTGG [AS1411], the Kd amounted to 0.169 µM.
Sequence GGTGGTGGTGGNTGTGGTGGTGGNGG [FAN-1224dI] yielded a Kd (N = 2'-deoxyinosine at positions 12 and 24 (replacing T)) of 0.0322 µM.
Consider GGTGGTGGTGGTTGNGGTGGTGGNGG [FAN-1524dI], for which the Kd (N = 2'-deoxyinosine at positions 15 and 24 (replacing T)) stood at 0.037 µM.
